Data taken from patent US20120052569.

Columns and labels:
[1] = biological target: His-eTEV-Fn fusion protein (wild type), P02751
[2] = biological target: His-eTEV-Fn fusion protein, Ala mutant D10, P02751
[3] = biological target: His-eTEV-Fn fusion protein, Ala mutant E2, P02751
[4] = biological target: His-eTEV-Fn fusion protein, Ala mutant F6, P02751
[5] = biological target: His-eTEV-Fn fusion protein, Ala mutant G11, P02751
[6] = biological target: His-eTEV-Fn fusion protein, Ala mutant G8, P02751
[7] = biological target: His-eTEV-Fn fusion protein, Ala mutant K9, P02751
[8] = biological target: His-eTEV-Fn fusion protein, Ala mutant L4, P02751
[9] = biological target: His-eTEV-Fn fusion protein, Ala mutant M0, P02751
[10] = biological target: His-eTEV-Fn fusion protein, Ala mutant N3, P02751
[11] = biological target: His-eTEV-Fn fusion protein, Ala mutant Q7, P02751
[12] = biological target: His-eTEV-Fn fusion protein, Ala mutant R1, P02751
[13] = biological target: His-eTEV-Fn fusion protein, Ala mutant Y5, P02751
W tag fused GFPUV = biological target: T1, W tag fused GFPUV
T1 chain: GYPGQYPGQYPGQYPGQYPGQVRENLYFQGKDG

His-eTEV-Fn fusion protein, Ala mutant G8, P02751, sequence (P02751 whole entry, looked up, change not shown, the tested form may be a part): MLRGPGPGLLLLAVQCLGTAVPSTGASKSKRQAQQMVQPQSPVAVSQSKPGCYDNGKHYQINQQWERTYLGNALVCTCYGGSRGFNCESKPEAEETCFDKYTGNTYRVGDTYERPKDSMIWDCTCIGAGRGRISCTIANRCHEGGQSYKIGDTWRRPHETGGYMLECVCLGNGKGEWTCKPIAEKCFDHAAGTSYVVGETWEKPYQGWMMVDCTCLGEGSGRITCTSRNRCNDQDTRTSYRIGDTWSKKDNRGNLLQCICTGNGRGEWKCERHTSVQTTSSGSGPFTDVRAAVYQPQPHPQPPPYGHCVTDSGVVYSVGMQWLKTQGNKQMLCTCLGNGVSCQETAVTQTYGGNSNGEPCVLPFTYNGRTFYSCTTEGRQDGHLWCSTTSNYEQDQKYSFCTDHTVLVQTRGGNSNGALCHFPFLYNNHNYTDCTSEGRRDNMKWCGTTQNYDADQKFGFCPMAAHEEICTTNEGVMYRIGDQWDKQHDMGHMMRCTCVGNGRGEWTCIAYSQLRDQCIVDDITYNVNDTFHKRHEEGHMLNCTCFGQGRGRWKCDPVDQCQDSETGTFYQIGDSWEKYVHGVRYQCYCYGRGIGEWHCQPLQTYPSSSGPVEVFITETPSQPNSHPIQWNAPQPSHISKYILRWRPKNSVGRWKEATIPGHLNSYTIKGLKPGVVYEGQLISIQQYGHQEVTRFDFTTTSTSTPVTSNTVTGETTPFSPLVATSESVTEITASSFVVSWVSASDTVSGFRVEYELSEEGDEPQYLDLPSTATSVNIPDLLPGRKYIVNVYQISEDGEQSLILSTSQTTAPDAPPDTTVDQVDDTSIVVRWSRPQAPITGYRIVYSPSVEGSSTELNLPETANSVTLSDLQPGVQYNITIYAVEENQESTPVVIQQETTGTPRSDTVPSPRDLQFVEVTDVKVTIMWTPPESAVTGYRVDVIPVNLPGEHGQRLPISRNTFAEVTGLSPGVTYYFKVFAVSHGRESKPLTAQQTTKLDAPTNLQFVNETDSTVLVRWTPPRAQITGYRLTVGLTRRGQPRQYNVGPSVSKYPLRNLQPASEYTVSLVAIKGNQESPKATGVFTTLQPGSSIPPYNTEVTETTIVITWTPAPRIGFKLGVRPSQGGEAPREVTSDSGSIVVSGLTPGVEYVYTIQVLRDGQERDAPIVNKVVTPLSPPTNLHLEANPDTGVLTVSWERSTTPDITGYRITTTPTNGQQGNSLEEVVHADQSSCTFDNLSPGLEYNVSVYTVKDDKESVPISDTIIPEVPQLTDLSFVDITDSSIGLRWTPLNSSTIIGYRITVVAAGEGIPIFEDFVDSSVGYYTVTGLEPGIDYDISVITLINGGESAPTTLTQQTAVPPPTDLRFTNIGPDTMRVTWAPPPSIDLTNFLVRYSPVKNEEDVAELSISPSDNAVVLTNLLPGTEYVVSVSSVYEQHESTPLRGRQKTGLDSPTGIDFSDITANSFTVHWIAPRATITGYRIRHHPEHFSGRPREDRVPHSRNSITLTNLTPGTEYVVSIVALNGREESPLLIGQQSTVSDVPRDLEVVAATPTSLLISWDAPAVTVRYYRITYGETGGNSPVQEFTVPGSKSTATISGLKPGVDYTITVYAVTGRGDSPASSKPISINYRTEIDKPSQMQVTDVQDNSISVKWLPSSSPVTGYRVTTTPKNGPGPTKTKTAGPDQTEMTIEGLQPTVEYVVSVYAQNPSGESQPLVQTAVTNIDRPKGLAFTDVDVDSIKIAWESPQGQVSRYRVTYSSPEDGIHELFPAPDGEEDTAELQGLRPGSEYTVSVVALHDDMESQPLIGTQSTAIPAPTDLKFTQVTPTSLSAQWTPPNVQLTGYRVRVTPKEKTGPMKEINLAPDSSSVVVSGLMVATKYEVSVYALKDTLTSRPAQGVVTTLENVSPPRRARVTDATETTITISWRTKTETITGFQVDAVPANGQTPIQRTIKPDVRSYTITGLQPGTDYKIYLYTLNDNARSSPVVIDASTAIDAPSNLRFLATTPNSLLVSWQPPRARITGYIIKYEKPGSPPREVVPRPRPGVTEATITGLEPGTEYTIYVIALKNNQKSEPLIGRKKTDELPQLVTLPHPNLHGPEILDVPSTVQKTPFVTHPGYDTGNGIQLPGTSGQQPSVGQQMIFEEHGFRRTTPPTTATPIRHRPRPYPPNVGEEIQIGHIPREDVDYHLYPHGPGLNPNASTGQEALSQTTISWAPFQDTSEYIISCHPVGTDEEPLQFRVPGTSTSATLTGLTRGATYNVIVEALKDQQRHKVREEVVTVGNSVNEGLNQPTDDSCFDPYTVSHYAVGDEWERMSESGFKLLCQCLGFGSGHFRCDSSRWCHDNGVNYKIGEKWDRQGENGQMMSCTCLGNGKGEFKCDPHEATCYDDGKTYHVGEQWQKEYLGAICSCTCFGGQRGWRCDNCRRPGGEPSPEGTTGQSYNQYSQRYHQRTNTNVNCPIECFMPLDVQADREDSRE
His-eTEV-Fn fusion protein, Ala mutant E2, P02751, sequence (P02751 whole entry, looked up, change not shown, the tested form may be a part): as above
His-eTEV-Fn fusion protein, Ala mutant M0, P02751, sequence (P02751 whole entry, looked up, change not shown, the tested form may be a part): as above
His-eTEV-Fn fusion protein, Ala mutant N3, P02751, sequence (P02751 whole entry, looked up, change not shown, the tested form may be a part): as above
His-eTEV-Fn fusion protein, Ala mutant L4, P02751, sequence (P02751 whole entry, looked up, change not shown, the tested form may be a part): as above
His-eTEV-Fn fusion protein, Ala mutant G11, P02751, sequence (P02751 whole entry, looked up, change not shown, the tested form may be a part): as above
His-eTEV-Fn fusion protein, Ala mutant Y5, P02751, sequence (P02751 whole entry, looked up, change not shown, the tested form may be a part): as above
His-eTEV-Fn fusion protein, Ala mutant Q7, P02751, sequence (P02751 whole entry, looked up, change not shown, the tested form may be a part): as above
His-eTEV-Fn fusion protein, Ala mutant F6, P02751, sequence (P02751 whole entry, looked up, change not shown, the tested form may be a part): as above
His-eTEV-Fn fusion protein, Ala mutant K9, P02751, sequence (P02751 whole entry, looked up, change not shown, the tested form may be a part): as above
His-eTEV-Fn fusion protein, Ala mutant R1, P02751, sequence (P02751 whole entry, looked up, change not shown, the tested form may be a part): as above
His-eTEV-Fn fusion protein, Ala mutant D10, P02751, sequence (P02751 whole entry, looked up, change not shown, the tested form may be a part): as above
His-eTEV-Fn fusion protein (wild type), P02751, sequence (P02751 other isoform, or with tags, fused parts or gaps): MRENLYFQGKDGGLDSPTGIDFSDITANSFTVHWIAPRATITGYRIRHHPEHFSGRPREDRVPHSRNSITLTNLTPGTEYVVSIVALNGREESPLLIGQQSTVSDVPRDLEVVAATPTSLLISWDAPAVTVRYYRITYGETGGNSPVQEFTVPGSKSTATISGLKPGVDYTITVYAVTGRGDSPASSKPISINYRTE

B1: Tobacco etch virus (TEV) protease (protein)
chain: GESLFKGPRDYNPISSTICHLTNESDGHTTSLYGIGFGPFIITNKHLFRRNNGTLLVQSLHGVFKVKNTTTLQQHLIDGRDMIIIRMPKDFPPFPQKLKFREPQREERICLVTTNFQTKSMSSMVSDTSCTFPSSDGIFWKHWIQTKDGQCGSPLVSTRDGFIVGIHSASNFTNTNNYFTSVPKNFMELLTNQEAQQWVSGWRLNADSVLWGGHKVFMSKPEEPFQPVKEATQLMNELVYSQ
cleavage by TEV protease (SDS electrophoresis, 24 kDa to 20 kDa shift) [1]: The eTEV peptide is recognized and cleaved by TEV protease.
cleavage by TEV protease (SDS electrophoresis, 24 kDa to 20 kDa shift) [2]: the other residues are substitutable with Ala
cleavage by TEV protease (SDS electrophoresis, 24 kDa to 20 kDa shift) [3]: substitution of Ala for Glu at residue 2 gives no significant change in cleavage
cleavage by TEV protease (SDS electrophoresis, 24 kDa to 20 kDa shift) [4]: the other residues are substitutable with Ala
cleavage by TEV protease (SDS electrophoresis, 24 kDa to 20 kDa shift) [5]: the other residues are substitutable with Ala
cleavage by TEV protease (SDS electrophoresis, 24 kDa to 20 kDa shift) [6]: the other residues are substitutable with Ala
cleavage by TEV protease (SDS electrophoresis, 24 kDa to 20 kDa shift) [7]: the other residues are substitutable with Ala
cleavage by TEV protease (SDS electrophoresis, 24 kDa to 20 kDa shift) [8]: the 4th, 5th and 7th amino acids (namely, Leu, Tyr and Gln) are essential for the substrate of TEV protease
cleavage by TEV protease (SDS electrophoresis, 24 kDa to 20 kDa shift) [9]: the other residues are substitutable with Ala
cleavage by TEV protease (SDS electrophoresis, 24 kDa to 20 kDa shift) [10]: the other residues are substitutable with Ala
cleavage by TEV protease (SDS electrophoresis, 24 kDa to 20 kDa shift) [11]: the 4th, 5th and 7th amino acids (namely, Leu, Tyr and Gln) are essential for the substrate of TEV protease
cleavage by TEV protease (SDS electrophoresis, 24 kDa to 20 kDa shift) [12]: the other residues are substitutable with Ala
cleavage by TEV protease (SDS electrophoresis, 24 kDa to 20 kDa shift) [13]: the 4th, 5th and 7th amino acids (namely, Leu, Tyr and Gln) are essential for the substrate of TEV protease
cleavage by TEV protease (W tag fused Fn, P02751): the above-mentioned W tag fusion proteins, like single tag fusion proteins, can be used ... for cleavage by TEV protease
cleavage by TEV protease (W tag fused GFPUV): the above-mentioned W tag fusion proteins, like single tag fusion proteins, can be used ... for cleavage by TEV protease
